Experimental findings from publication PMC7806870 are described below.

Assay [1] has as its target GLP-1 receptor (UniProt P43220).
For assay [2] the target is unchanged. The source holds these as a separate data set.
For assay [3], the target named is extracellular domain of the human β-klotho protein (human) (UniProt Q86Z14). Nature of the assay: BLI. (In BLI a coated tip is dipped into the sample, and binding shifts an interference pattern.)
Assay [4] has the same target.
Assay [5] has the same target. This is another data set of the same source.

extracellular domain of the human β-klotho protein (human), sequence (Q86Z14 1-996): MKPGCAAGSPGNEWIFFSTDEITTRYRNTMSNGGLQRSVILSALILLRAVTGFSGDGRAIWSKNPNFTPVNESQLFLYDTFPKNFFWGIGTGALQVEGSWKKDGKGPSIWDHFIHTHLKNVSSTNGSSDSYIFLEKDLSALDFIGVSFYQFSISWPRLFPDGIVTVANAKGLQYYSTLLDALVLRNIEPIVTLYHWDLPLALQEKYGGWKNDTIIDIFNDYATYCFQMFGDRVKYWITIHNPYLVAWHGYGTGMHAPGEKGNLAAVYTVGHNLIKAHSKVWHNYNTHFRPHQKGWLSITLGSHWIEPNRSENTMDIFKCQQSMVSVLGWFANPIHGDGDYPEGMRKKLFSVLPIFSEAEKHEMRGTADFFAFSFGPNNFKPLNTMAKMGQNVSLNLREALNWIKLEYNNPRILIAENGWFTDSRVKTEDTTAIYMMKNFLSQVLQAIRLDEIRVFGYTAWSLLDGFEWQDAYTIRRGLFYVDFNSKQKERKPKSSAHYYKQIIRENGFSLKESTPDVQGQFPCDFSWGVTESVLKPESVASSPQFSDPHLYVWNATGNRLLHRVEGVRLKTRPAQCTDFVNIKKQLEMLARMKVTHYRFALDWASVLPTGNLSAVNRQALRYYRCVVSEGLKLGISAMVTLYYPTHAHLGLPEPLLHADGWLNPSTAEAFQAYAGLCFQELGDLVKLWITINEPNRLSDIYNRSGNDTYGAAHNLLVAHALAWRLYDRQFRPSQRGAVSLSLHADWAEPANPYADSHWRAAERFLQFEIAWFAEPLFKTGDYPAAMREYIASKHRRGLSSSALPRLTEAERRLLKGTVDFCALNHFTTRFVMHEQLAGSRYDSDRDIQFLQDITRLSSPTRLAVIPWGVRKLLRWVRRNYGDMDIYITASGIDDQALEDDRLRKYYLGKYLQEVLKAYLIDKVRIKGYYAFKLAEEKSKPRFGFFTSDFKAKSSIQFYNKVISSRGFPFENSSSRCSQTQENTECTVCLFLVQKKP
GLP-1 receptor, sequence (P43220 24-463): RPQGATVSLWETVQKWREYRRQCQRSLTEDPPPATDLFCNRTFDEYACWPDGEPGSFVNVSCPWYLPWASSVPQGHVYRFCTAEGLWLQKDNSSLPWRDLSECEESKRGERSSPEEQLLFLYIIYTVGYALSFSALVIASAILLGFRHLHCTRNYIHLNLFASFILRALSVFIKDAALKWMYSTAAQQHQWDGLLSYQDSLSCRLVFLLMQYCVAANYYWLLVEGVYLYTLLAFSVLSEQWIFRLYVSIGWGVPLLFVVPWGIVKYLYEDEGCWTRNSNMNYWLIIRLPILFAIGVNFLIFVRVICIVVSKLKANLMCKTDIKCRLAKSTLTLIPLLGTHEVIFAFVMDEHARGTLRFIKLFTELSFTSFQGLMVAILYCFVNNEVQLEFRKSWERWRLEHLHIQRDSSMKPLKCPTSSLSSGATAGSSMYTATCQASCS

As for Dulaglutide (Fc fusion), in the assay with GLP-1 receptor [1], the EC50 of cAMP in HEK293 cells expressing both GLP-1R and β-Klotho (Fig. 2c) worked out at 210 pM. The substance further yielded an EC50 of cAMP production in HEK293 cells expressing GLP-1R alone (Fig. 2b) with GLP-1 receptor [2] of 60 pM.

A word on the Kd: it is the constant that tells how readily two partners part at equilibrium. A lower Kd goes with a tighter complex. In turn, “GLP-1-Fc-FGF21 (L98R, S167H, P171A) (Fc fusion)” came in with a Kd in assay [3] of 240 pM. Consider Fc-FGF21 (L98R, P171A) (Fc fusion), for which the dissociation constant (Kd) in assay [3] was determined as 767 pM. In turn, “Fc-FGF21 (L98R, S167H, P171A, R175L) (Fc fusion)” registered an EC50 of cAMP in HEK293 cells expressing both GLP-1R and β-Klotho (Fig. 2c) in assay [4] of 305000 pM. In assay [3], this substance displayed a Kd of 316 pM. Besides, the EC50 of ERK1/2 phosphorylation in HEK293 cells expressing β-Klotho (Fig. 2a) in assay [5] turned out to be 1130 pM. On to “GLP-1-Fc-FGF21 (L98R, S167H, P171A, R175L) (Fc fusion)”, for which the Kd in assay [3] was determined as 92.4 pM. Moreover, in the assay with GLP-1 receptor [2], the EC50 of cAMP production in HEK293 cells expressing GLP-1R alone (Fig. 2b) worked out at 150 pM. The substance also came in with an EC50 of ERK1/2 phosphorylation in HEK293 cells expressing β-Klotho (Fig. 2a) in assay [5] of 1520 pM. In assay [3], “Fc-FGF21 (L98R, S167H, P171A) (Fc fusion)” came in with a Kd of 590 pM.
